In paper PMC9623368, “P38 kinases mediate NLRP1 inflammasome activation after ribotoxic stress response and virus infection” (The Journal of Experimental Medicine, 2022):

B1: VHH_(NLRP1 PYD) 2 (VHH)
VHH: QVQLVESGGGLVQTGGSLRLSCVASGGTFSRFTMAWFRQAPGKEREFVAGVSWSGGLTHYSDSVKGRFTISRDNAKNTLYLQMSSLKPEDTAVYYCYGQSTVAGATIDYWGQGTQVTVSS
notes: Alpaca nanobody raised against His-NLRP1^PYD, selected by phage display on GST-NLRP1^PYD; cloned into a pHEN6-based periplasmic vector with C-terminal HA-His6; also called VHHPYD 2; NLRP1^PYD nanobody 2; source: E. coli WK6, periplasmic extract, purified (Ni-NTA, desalting); not shown: HA, C-terminal, kept
B2: VHH_(NLRP1 PYD 1) (VHH)
VHH: QVQLVESGGGLVEAGGSLRLSCAASGRTFSNYALSWFRQAPGKERELVAAISWSGDYTYYADSVKGRFTISRDNAKNTVYLQMHSLKPEDTAVYYCNADSRSGTYSPSSGSWGQGTQVTVSS
notes: Alpaca nanobody raised against His-NLRP1^PYD, selected by phage display on GST-NLRP1^PYD; cloned into a pHEN6-based periplasmic vector with C-terminal HA-His6; also called VHHPYD 1; NLRP1^PYD nanobody 1; source: E. coli WK6, periplasmic extract, purified (Ni-NTA, desalting); not shown: HA, C-terminal, kept

Molecular target: T1, GST-NLRP1^PYD (Homo sapiens, UniProt Q9C000)
T1 construct: NLRP1, human, pyrin domain (PYD), aa 1-92; Vector: customised destination vector based on pGEX-2T; also called GST-NRLP1^PYD; source: E. coli BL21, purified (glutathione resin, gel filtration)
Assay: ELISA; GST-NLRP1^PYD or GST in PBS immobilised on ELISA plates at 1 ug/ml overnight; serial tenfold dilutions of HA-tagged nanobodies in 10% FBS/PBS; detected with HRP-coupled anti-HA and TMB, absorption at 450 nm
Details: both partners purified

T1 sequence (Q9C000 1-92): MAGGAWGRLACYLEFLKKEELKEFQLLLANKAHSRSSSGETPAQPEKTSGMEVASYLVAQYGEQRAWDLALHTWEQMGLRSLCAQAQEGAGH

Row | Binder | binding result
1 | B1 | binds
2 | B2 | binds
